Results: publication PMC3087007 (The Journal of Cell Biology, 2011)

Biological target: T1, GST-occludin 383–522 S408A (human, UniProt Q16625 383-522, S408A)
T1 sequence: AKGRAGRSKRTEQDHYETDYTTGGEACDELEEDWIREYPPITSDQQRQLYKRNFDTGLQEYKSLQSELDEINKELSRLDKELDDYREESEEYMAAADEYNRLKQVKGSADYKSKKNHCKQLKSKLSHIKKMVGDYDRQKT
Assay: pull-down

B1: VSV G epitope-tagged human ZO-1 U5-GuK domain construct (residues 591–754) (domain or fragment)
chain: PKTAGGDRADFWRFRGLRSSKRNLRKSREDLSAQPVQTKFPAYERVVLREAGFLRPVTIFGPIADVAREKLAREEPDIYQIAKSEPRDAGTDQRSSGIIRLHTIKQIIDQDKHALLDVTPNAVDRLNYAQWYPIVVFLNPDSKQGVKTMRMRLCPESRKSARKL
fold binding relative to the S408D mutant: 3.2 fold
